This passage reports Kd results from PMC8109800.

By pKd is commonly meant −log10 of the Kd, conventionally taken in molar units.

pKd: −log10 of the molar value.

In series [1] the test system is Chl1 full-length (Chaetomium thermophilum). Description: fluorescence anisotropy. Conditions: no plateau reached, low affinity; 50 mM HEPES pH 8.0, 50 mM NaCl, 0.5 mM TCEP, 25 C; 10 nM FAM-DNA; quadratic fit. A general note: Fluorescence polarisation rises when a labelled molecule tumbles more slowly, as on binding a larger partner.
In series [2] the test system is MiniChl1V2 (Chaetomium thermophilum). Put plainly: fluorescence anisotropy. Conditions: 50 mM HEPES pH 8.0, 50 mM NaCl, 0.5 mM TCEP, 25 C; 10 nM FAM-DNA; quadratic fit.

As for 22-mer ssDNA, the pKd in series [1] was less than 6.00; in series [2], 7.42.
